According to article PMC5376962:

Molecular target: Burkholderia pseudomallei N-type ATPase c-subunit (atpE), assembled into the c17 rotor ring, expressed alone in E. coli (Burkholderia pseudomallei)
Assay: cryo-EM structure

“Burkholderia pseudomallei N-type ATPase c-subunit (atpE), assembled into the c17 rotor ring, expressed alone in E. coli (natural protein)” gave a stoichiometry N of 17.
